# In patent publication US20040137588A1 (published 2004):
# What was measured:
# [1] = molecular target: chimeric receptor consisting of the extracellular and membrane domain of VEGFR1 fused to the cytoplasmic domain of gp130, on 293A12 cells (UniProt P17948); assay: cell-based or functional assay
# [2] = molecular target: T1, VEGF-R2/Fc chimeric protein (R&D systems) (human, UniProt P35968 20-764); assay: SPR (Biacore 2000), VEGF-B167 immobilised, receptor injected
# T1 construct: Bought from R&D systems; not shown: human immunoglobulin Fc domain
# T1 sequence (P35968 20-764 limits assumed, change not shown): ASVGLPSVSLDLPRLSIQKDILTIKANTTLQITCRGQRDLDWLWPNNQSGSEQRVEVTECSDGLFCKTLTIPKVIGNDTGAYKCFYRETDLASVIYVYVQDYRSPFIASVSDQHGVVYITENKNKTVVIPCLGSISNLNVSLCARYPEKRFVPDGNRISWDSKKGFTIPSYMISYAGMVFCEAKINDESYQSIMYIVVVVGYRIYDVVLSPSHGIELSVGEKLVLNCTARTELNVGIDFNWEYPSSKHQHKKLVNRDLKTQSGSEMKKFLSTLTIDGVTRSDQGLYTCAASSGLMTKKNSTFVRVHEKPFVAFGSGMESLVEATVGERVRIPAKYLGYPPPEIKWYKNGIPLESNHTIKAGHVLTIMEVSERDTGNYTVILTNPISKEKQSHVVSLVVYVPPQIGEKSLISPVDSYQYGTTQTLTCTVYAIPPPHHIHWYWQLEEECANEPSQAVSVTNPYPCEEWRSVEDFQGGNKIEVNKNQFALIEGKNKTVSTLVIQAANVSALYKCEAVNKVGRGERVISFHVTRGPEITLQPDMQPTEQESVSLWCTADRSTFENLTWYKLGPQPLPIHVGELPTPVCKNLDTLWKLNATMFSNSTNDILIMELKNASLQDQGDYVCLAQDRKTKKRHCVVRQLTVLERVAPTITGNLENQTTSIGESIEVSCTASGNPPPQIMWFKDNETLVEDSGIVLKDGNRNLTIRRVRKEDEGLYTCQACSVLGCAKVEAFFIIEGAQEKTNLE
# Method: For control purposes binding of the receptors to VEGF-A₁₆₅ was also monitored. Both VEGF-B₁₆₇ and VEGF-A₁₆₅ were individually immobilised to a sensorchip using NHS/EDC chemistry according to the manufacturer's instructions. Briefly, 35 μl of NHS and EDC was injected onto the sensorchip at a flow rate of 5 μl/min to activate the sensor surface and enable covalent coupling of either VEGF-A₁₆₅ or VEGF-B₁₆₇. […] Post coupling, diaminoethane (50 mM, pH 9.0) was used to block any unbound activated sites on the sensor surface. Concentrated dimeric VEGF-B₁₆₇ (200 μg/ml) was diluted (1:10) in 20 mM sodium acetate and immobilized onto a separate channel on the sensorchip. Post coupling, diaminoethane (50 mM, pH 9.0) was used to block any unbound activated sites on the sensor surface.
# At the end of each run, the surface of the sensorchip was regenerated using 2 cycles of phosphoric acid (0.1 M, 30 μl) at a flow of 50 μl/min. […] Both were diluted into 0.1% w/v BSA in PBS as a stock solution (50 μg/ml, storage −20° C.).
# [3] = molecular target: T2, VEGF-R1/Fc chimeric protein (R&D systems) (human, UniProt P17948 27-687, limits assumed); assay: competition ELISA on captured VEGF-R1/Fc (100 ng/ml); competitor VEGF-A165 at 10 ng/ml, detected with biotinylated anti-VEGF-A165
# T2 construct: Bought from R&D systems; also called VEGF-R1/Flt-1; soluble VEGFR1-Ig chimeric protein; not shown: human immunoglobulin Fc domain
# T2 sequence (P17948 27-687 limits assumed, change not shown): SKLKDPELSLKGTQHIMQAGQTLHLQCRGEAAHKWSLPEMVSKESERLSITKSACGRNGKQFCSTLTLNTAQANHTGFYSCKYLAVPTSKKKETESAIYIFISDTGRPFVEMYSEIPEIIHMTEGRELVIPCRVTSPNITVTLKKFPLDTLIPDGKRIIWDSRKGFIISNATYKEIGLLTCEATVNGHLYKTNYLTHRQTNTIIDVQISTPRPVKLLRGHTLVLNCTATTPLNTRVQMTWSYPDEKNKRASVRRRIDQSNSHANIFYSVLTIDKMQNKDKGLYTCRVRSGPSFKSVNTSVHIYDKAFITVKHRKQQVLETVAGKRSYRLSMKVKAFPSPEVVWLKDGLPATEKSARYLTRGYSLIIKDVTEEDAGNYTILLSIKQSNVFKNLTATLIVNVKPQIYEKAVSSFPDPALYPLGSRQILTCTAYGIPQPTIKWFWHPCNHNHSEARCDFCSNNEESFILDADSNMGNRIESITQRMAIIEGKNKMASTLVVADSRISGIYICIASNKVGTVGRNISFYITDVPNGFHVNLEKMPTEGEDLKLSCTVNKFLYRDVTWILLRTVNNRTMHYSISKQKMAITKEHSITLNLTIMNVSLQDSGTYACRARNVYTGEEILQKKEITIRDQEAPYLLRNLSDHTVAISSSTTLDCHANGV
# Method: 3. […] Plates were incubated for 90 min at room temperature.
# 5. VEGF-A₁₆₅ was added (indicated concentration in Buffer 20) and incubated at room temp for 1 hr. In competition experiments, VEGF-B₁₆₇ was added 30 min prior to the addition of VEGF-A₁₆₅. A range of VEGF-B₁₆₇ concentrations were used to compete with VEGF-A₁₆₅ at a final concentration of 10 ng/ml.
# 7. Biotinylated anti-VEGF-A₁₆₅ (10 ng/ml in Buffer 20, 100 μl) was added and incubated for 1 hr.
# Chain of chimeric receptor consisting of the extracellular and membrane domain of VEGFR1 fused to the cytoplasmic domain of gp130, on 293A12 cells (P17948 other isoform, or with tags, fused parts or gaps mutant limits assumed): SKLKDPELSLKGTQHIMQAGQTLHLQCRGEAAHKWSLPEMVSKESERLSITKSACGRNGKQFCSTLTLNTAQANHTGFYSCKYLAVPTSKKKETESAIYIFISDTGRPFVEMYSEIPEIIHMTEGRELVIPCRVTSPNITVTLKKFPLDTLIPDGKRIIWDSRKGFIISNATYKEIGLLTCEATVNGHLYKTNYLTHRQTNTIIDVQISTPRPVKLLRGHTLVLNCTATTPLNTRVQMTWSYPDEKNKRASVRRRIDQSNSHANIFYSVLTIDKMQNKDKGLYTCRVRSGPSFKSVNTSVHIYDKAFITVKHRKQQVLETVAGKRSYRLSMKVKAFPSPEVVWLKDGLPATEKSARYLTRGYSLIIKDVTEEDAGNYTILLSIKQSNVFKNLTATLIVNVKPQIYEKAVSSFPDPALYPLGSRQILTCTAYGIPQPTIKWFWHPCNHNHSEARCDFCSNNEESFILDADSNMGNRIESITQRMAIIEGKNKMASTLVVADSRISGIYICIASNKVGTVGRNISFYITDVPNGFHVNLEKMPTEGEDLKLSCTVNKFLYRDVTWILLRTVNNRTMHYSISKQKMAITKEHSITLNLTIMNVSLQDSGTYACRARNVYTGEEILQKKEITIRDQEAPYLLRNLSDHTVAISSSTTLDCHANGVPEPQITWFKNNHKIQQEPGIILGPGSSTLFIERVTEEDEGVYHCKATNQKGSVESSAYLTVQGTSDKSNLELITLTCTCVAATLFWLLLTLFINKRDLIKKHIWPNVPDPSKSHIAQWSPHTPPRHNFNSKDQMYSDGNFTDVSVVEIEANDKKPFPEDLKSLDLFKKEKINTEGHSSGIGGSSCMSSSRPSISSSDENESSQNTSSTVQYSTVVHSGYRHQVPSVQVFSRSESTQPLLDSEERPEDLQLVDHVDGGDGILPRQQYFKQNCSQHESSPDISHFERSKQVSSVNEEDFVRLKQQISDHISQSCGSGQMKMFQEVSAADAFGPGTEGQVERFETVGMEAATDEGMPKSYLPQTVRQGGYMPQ
ED50 of luciferase production in 293A12 cells with the chimeric receptor [1],binding result [2],IC50 [3],Molecule
0.01 to 0.05 µg/mL,,,"VEGF-A (commercially available recombinant protein, Example 28) (from UniProt P15692 27-191) (ligand)"
,no binding,~0.02 µg/mL,"purified refolded dimeric VEGF-B167 (ligand, human, UniProt P49765-2 22-188, looked up, not shown: small tags and cut ends, mature) PVSQPDAPGHQRKVVSWIDVYTRATCQPREVVVPLTVELMGTVAKQLVPSCVTVQRCGGCCPDDGLECVPTGQHQVRMQILMIRYPSSQLGEMSLEEHSQCECRPKKKDSAVKPDSPRPLCPRCTQHHQRPDPRTCRCRCRRRSFLRCQGRGLELNPDTCRCRKLRR"
